Results: patent US20240116985A1 (published 2024)
Starred links: 1 amine or outer side, 2 acyl side, 3 side chain; linkers in the order of their positions; H or OH if unused. Positions of bridges follow the written chain, without caps; N, C: chain ends. Non-standard residues stand in square brackets, D forms with d. Primed or numbered codes have the meaning given here. PyrS2″ = (S)-3-amino-1-((pent-4-en-1-yloxy)carbonyl)pyrrolidine-3-carboxylic acid (stapling residue), C=CCCCOC(=O)N1CC[C@@](N[*:1])(C(=O)[*:2])C1; B5(24) = 2-amino-2-(pent-4-en-1-yl)hept-6-enoic acid, 2,2-bis(4-pentenyl)glycine (stitching residue), C=CCCCC(CCCC=C)(N[*:1])C(=O)[*:2]; TfeGA = (S)-2-amino-3-((carboxymethyl)(2,2,2-trifluoroethyl)amino)propanoic acid, O=C([C@H](CN(CC(=O)[*:3])CC(F)(F)F)N[*:1])[*:2]; B5(3) = 2,2-bis(4-pentenyl)glycine (stitching residue), C=CCCCC(CCCC=C)(N[*:1])C(=O)[*:2]; Asp(OEt)″ = aspartic acid side-chain ethyl ester, CCOC(=O)C[C@H](N[*:1])C(=O)[*:2]; Asp(OMe) = [Me]AspE, Asp side-chain methyl ester, COC(=O)C[C@H](N[*:1])C(=O)[*:2]; Phe(3-CF3) = N[C@@H](Cc1cccc(C(F)(F)F)c1)C(=O)O; Phe(3-OMe) = COc1cccc(C[C@H](N)C(=O)O)c1; Phe(2-Cl) = N[C@@H](Cc1ccccc1Cl)C(=O)O; Bta = N[C@@H](Cc1csc2ccccc12)C(=O)O; Lys(iPr) = CC(C)NCCCC[C@H](N)C(=O)O; αAllylPro = C=CC[C@@]1(C(=O)O)CCCN1; tBuAla = CC(C)(C)C[C@H](N)C(=O)O; 3Thi = N[C@@H](Cc1ccsc1)C(=O)O; Cha = N[C@@H](CC1CCCCC1)C(=O)O; hSer = N[C@@H](CCO)C(=O)O

T1: B-cat-Halo (UniProt P35222 1-781)
T1 sequence (looked up): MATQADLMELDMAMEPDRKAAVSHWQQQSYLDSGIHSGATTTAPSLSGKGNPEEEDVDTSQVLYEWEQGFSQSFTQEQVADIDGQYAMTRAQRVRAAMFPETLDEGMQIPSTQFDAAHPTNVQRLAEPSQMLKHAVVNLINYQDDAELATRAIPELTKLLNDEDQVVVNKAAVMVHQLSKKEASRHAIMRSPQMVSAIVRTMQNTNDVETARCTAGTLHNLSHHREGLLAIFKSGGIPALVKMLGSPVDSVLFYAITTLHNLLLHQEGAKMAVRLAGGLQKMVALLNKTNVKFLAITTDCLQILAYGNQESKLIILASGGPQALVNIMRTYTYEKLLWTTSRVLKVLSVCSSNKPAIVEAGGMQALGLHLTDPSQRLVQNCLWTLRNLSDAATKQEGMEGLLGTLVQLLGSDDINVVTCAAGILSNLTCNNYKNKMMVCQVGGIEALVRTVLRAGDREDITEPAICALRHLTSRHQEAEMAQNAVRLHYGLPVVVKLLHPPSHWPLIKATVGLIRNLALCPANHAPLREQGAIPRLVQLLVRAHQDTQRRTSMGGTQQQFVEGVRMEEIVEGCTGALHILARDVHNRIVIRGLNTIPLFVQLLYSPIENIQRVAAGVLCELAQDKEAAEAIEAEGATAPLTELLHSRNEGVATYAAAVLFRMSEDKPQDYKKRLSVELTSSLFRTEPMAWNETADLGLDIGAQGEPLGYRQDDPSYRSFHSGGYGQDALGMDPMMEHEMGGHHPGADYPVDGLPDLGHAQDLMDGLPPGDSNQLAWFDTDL

T2: B-cat-Halo (beta-catenin HaloTag fusion expressed in HEK293 cells) (UniProt P35222 1-781, HaloTag NanoBRET 618 Ligand bound to the HaloTag)
T2 sequence (looked up): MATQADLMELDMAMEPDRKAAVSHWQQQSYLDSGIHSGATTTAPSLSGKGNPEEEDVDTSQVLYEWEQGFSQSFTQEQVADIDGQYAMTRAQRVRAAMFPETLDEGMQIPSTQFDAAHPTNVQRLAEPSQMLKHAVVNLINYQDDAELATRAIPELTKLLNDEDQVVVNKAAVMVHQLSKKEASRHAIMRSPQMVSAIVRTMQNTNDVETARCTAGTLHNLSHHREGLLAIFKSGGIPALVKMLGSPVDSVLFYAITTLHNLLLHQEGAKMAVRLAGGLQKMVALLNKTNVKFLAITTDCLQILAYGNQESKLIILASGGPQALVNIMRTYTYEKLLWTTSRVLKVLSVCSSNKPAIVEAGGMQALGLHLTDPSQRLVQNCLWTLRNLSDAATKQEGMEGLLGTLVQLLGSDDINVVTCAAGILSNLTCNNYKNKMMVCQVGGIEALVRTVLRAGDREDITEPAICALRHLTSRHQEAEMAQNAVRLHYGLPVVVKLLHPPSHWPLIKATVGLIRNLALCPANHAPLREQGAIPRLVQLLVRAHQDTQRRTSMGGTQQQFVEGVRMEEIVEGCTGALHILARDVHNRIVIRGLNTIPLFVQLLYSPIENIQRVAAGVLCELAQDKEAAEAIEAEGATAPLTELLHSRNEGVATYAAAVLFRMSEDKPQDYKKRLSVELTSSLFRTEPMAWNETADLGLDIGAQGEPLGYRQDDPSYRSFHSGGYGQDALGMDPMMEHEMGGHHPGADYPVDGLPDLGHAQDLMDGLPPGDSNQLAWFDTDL


molecular target: T1, B-cat-Halo; assay: cell-based or functional assay

NanoBRET Abs IC50 [µM] | Binder
14.9 | Ac-[αAllylPro]D[Cha][B5(24)]DDAAFS[PyrS2″][Phe(2-Cl)][Bta][dT]-NH2 (staple 1-4, 4-11) [I-1136]
18 | Ac-[αAllylPro]D[Cha][B5(24)]DDAAFL[PyrS2″][Phe(2-Cl)][Bta]T-NH2 (staple 1-4, 4-11) [I-1139]
19.8 | Ac-[αAllylPro]D[Cha][B5(24)]DDAAFS[PyrS2″][Phe(2-Cl)][Bta]L-NH2 (staple 1-4, 4-11) [I-1138]
18.8 | Ac-[αAllylPro]D[tBuAla][B5(24)]DD[Lys(iPr)]AFN[PyrS2″][Phe(2-Cl)][Bta]Q-NH2 (staple 1-4, 4-11) [I-1131]
> 20 | Ac-[αAllylPro]D[Cha][B5(3)]DDAA[Phe(3-CF3)]S[PyrS2″]F[Bta]Q-NH2 (staple 1-4, 4-11) [I-1125]
> 20 | Ac-[αAllylPro]D[Cha][B5(3)]DDAA[Phe(3-OMe)]S[PyrS2″]F[Bta]Q-NH2 (staple 1-4, 4-11) [I-1124]
12 | Ac-[αAllylPro]D[Cha][B5(24)]DDAAFS[PyrS2″][Phe(2-Cl)][Bta][hSer]-NH2 (staple 1-4, 4-11) [I-1137]

The next lines start with the binder.

Binder | NanoBRET Abs IC50 [µM]
Ac-[αAllylPro]D[tBuAla][B5(24)]DDA[Lys(iPr)]FN[PyrS2″][Phe(2-Cl)][Bta]Q-NH2 (staple 1-4, 4-11) [I-1132] | > 20
Ac-[αAllylPro]D[tBuAla][B5(24)]DDAAFN[PyrS2″][Phe(2-Cl)][Bta][Lys(iPr)]-NH2 (staple 1-4, 4-11) [I-1130] | 7.6

molecular target: T2, B-cat-Halo (beta-catenin HaloTag fusion …); assay: cell-based or functional assay

Binder | NanoBRET Abs IC50 [µM]
Ac-[αAllylPro][Asp(OMe)][tBuAla][B5(3)]DDAAFL[PyrS2″][3Thi][Bta]Q-NH2 (staple 1-4, 4-11) [I-2359] | > 20
Ac-[αAllylPro]N[Cha][B5(3)]D[TfeGA][Lys(iPr)]AFL[PyrS2″]F[Bta]Q-NH2 (staple 1-4, 4-11) [I-2341] | > 20
Ac-[αAllylPro]D[tBuAla][B5(3)][Asp(OEt)″]DAAFL[PyrS2″][3Thi][Bta]Q-NH2 (staple 1-4, 4-11) [I-2357] | > 20
Ac-[αAllylPro]D[tBuAla][B5(3)]D[Asp(OEt)″]AAFL[PyrS2″][3Thi][Bta]Q-NH2 (staple 1-4, 4-11) [I-2358] | 52.2
Ac-[αAllylPro]N[Cha][B5(3)]DQ[Lys(iPr)]AFL[PyrS2″]F[Bta]K-NH2 (staple 1-4, 4-11) [I-2350] | > 20
